Assay results as given in US20230250154A1 (CYTONICS, published 2023).

T1: ADAMTS4 (human, UniProt O75173 213-685, limits assumed)
T1 sequence (looked up): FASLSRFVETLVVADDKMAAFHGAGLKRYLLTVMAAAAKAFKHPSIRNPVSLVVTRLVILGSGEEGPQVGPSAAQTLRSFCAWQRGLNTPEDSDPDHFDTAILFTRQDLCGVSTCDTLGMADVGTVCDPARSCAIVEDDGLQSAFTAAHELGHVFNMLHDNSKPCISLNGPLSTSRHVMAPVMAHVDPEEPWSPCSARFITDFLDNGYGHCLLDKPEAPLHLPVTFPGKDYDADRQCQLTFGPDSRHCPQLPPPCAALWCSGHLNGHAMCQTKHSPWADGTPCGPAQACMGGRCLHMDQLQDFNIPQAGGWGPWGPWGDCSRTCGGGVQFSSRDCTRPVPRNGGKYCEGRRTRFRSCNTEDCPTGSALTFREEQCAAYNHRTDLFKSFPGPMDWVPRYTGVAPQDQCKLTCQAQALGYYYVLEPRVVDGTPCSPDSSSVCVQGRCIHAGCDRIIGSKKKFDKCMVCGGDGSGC

T2: ADAMTS5 (human, UniProt Q9UNA0 262-622, limits assumed)
T2 sequence (looked up): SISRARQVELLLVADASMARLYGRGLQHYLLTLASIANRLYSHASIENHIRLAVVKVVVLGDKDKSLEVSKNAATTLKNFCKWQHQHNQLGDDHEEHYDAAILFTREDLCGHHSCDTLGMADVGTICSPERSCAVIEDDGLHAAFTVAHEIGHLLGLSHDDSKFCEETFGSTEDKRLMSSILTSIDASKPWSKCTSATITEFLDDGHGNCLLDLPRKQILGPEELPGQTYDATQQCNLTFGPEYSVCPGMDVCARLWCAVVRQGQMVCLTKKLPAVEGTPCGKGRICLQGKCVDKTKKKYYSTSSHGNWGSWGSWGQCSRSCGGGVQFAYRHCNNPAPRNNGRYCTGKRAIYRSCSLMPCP


Key:
Assay in all cases: cell-based or functional assay
[1] = target: T1, ADAMTS4
[2] = target: MMP13 (human, UniProt P45452 104-471, limits assumed)
[3] = target: T2, ADAMTS5

Protease Inhibition (% of WT) [1] | Protease Inhibition (% of WT) [2] | Protease Inhibition (% of WT) [3] | Binder
94 % of WT | 164 % of WT | 115 % of WT | Variant A2M, bait region SEQ ID NO 105 (other) SVSGKPQYMVLVPSLLHTETTEKGCVLLSYLNETVTVSASLESVRGNRSLFTDLEAENDVLHCVAFAVPKSSSNEEVMFLTVQVKGPTQEFKKRTTVMVKNEDSLVFVQTDKSIYKPGQTVKFRVVSMDENFHPLNELIPLVYIQDPKGNRIAQWQSFQLEGGLKQFSFPLSSEPFQGSYKVVVQKKSGGRTEHPFTVEEFVLPKFEVQVTVPKIITILEEEMNVSVCGLYTYGKPVPGHVTVSICRKYSDASDCHGEDSQAFCEKFSGQLNSHGCFYQQVKTKVFQLKRKEYEMKLHTEAQIQEEGTVVELTGRQSSEITRTITKLSFVKVDSHFRQGIPFFGQVRLVDGKGVPIPNKVIFIRGNEANYYSNATTDEHGLVQFSINTTNVMGTSLTVRVNYKDRSPCYGYQWVSEEHEEAHHTAYLVFSPSKSFVHLEPMSHELPCGHTQTVQAHYILNGGTLLGLKKLSFYYLIMAKGGIVRTGTHGLLVKQEDMKGHFSISIPVKSDIAPVARLLIYAVLPTGDVIGDSAKYDVENCLANKVDLSFSPSQSLPASHAHLRVTAAPQSVCALRAVDQSVLLMKPDAELSASSVYNLLPEKDLTGFPGPLNDQDDEDCINRHNVYINGITYTPVSSTNEKDMYSFLEDMGLKAFTNSKIRKPKMCPQLEQYEMHGPEGLRVGGFKEGVEGEIEEGGGFKEGVEGKLRKYFPETWIWDLVVVNSAGVAEVGVTVPDTITEWKAGAFCLSEDAGLGISSTASLRAFQPFFVELTMPYSVIRGEAFTLKATVLNYLPKCIRVSVQLEASPAFLAVPVEKEQAPHCICANGRQTVSWAVTPKSLGNVNFTVSAEALESQELCGTEVPSVPEHGRKDTVIKPLLVEPEGLEKETTFNSLLCPSGGEVSEELSLKLPPNVVEESARASVSVLGDILGSAMQNTQNLLQMPYGCGEQNMVLFAPNIYVLDYLNETQQLTPEIKSKAIGYLNTGYQRQLNYKHYDGSYSTFGERYGRNQGNTWLTAFVLKTFAQARAYIFIDEAHITQALIWLSQRQKDNGCFRSSGSLLNNAIKGGVEDEVTLSAYITIALLEIPLTVTHPVVRNALFCLESAWKTAQEGDHGSHVYTKALLAYAFALAGNQDKRKEVLKSLNEEAVKKDNSVHWERPQKPKAPVGHFYEPQAPSAEVEMTSYVLLAYLTAQPAPTSEDLTSATNIVKWITKQQNAQGGFSSTQDTVVALHALSKYGAATFTRTGKAAQVTIQSSGTFSSKFQVDNNNRLLLQQVSLPELPGEYSMKVTGEGCVYLQTSLKYNILPEKEEFPFALGVQTLPQTCDEPKAHTSFQISLSVSYTGSRSASNMAIVDVKMVSGFIPLKPTVKMLERSNHVSRTEVSSNHVLIYLDKVSNQTLSLFFTVLQDVPVRDLKPAIVKVYDYYETDEFAIAEYNAPCSKDLGNADYKDDDDKGASHHHHHH
104 % of WT | 16 % of WT | 93 % of WT | Variant A2M, bait region SEQ ID NO 106 (other) SVSGKPQYMVLVPSLLHTETTEKGCVLLSYLNETVTVSASLESVRGNRSLFTDLEAENDVLHCVAFAVPKSSSNEEVMFLTVQVKGPTQEFKKRTTVMVKNEDSLVFVQTDKSIYKPGQTVKFRVVSMDENFHPLNELIPLVYIQDPKGNRIAQWQSFQLEGGLKQFSFPLSSEPFQGSYKVVVQKKSGGRTEHPFTVEEFVLPKFEVQVTVPKIITILEEEMNVSVCGLYTYGKPVPGHVTVSICRKYSDASDCHGEDSQAFCEKFSGQLNSHGCFYQQVKTKVFQLKRKEYEMKLHTEAQIQEEGTVVELTGRQSSEITRTITKLSFVKVDSHFRQGIPFFGQVRLVDGKGVPIPNKVIFIRGNEANYYSNATTDEHGLVQFSINTTNVMGTSLTVRVNYKDRSPCYGYQWVSEEHEEAHHTAYLVFSPSKSFVHLEPMSHELPCGHTQTVQAHYILNGGTLLGLKKLSFYYLIMAKGGIVRTGTHGLLVKQEDMKGHFSISIPVKSDIAPVARLLIYAVLPTGDVIGDSAKYDVENCLANKVDLSFSPSQSLPASHAHLRVTAAPQSVCALRAVDQSVLLMKPDAELSASSVYNLLPEKDLTGFPGPLNDQDDEDCINRHNVYINGITYTPVSSTNEKDMYSFLEDMGLKAFTNSKIRKPKMCPQLEQYEMHGPEGLRVGESESEGGFAGLPNGKEEEGLGSIPENFFGVKLRKYFPETWIWDLVVVNSAGVAEVGVTVPDTITEWKAGAFCLSEDAGLGISSTASLRAFQPFFVELTMPYSVIRGEAFTLKATVLNYLPKCIRVSVQLEASPAFLAVPVEKEQAPHCICANGRQTVSWAVTPKSLGNVNFTVSAEALESQELCGTEVPSVPEHGRKDTVIKPLLVEPEGLEKETTFNSLLCPSGGEVSEELSLKLPPNVVEESARASVSVLGDILGSAMQNTQNLLQMPYGCGEQNMVLFAPNIYVLDYLNETQQLTPEIKSKAIGYLNTGYQRQLNYKHYDGSYSTFGERYGRNQGNTWLTAFVLKTFAQARAYIFIDEAHITQALIWLSQRQKDNGCFRSSGSLLNNAIKGGVEDEVTLSAYITIALLEIPLTVTHPVVRNALFCLESAWKTAQEGDHGSHVYTKALLAYAFALAGNQDKRKEVLKSLNEEAVKKDNSVHWERPQKPKAPVGHFYEPQAPSAEVEMTSYVLLAYLTAQPAPTSEDLTSATNIVKWITKQQNAQGGFSSTQDTVVALHALSKYGAATFTRTGKAAQVTIQSSGTFSSKFQVDNNNRLLLQQVSLPELPGEYSMKVTGEGCVYLQTSLKYNILPEKEEFPFALGVQTLPQTCDEPKAHTSFQISLSVSYTGSRSASNMAIVDVKMVSGFIPLKPTVKMLERSNHVSRTEVSSNHVLIYLDKVSNQTLSLFFTVLQDVPVRDLKPAIVKVYDYYETDEFAIAEYNAPCSKDLGNADYKDDDDKGASHHHHHH
100 % of WT | 80 % of WT | 99 % of WT | Variant A2M, bait region SEQ ID NO 104 (other) SVSGKPQYMVLVPSLLHTETTEKGCVLLSYLNETVTVSASLESVRGNRSLFTDLEAENDVLHCVAFAVPKSSSNEEVMFLTVQVKGPTQEFKKRTTVMVKNEDSLVFVQTDKSIYKPGQTVKFRVVSMDENFHPLNELIPLVYIQDPKGNRIAQWQSFQLEGGLKQFSFPLSSEPFQGSYKVVVQKKSGGRTEHPFTVEEFVLPKFEVQVTVPKIITILEEEMNVSVCGLYTYGKPVPGHVTVSICRKYSDASDCHGEDSQAFCEKFSGQLNSHGCFYQQVKTKVFQLKRKEYEMKLHTEAQIQEEGTVVELTGRQSSEITRTITKLSFVKVDSHFRQGIPFFGQVRLVDGKGVPIPNKVIFIRGNEANYYSNATTDEHGLVQFSINTTNVMGTSLTVRVNYKDRSPCYGYQWVSEEHEEAHHTAYLVFSPSKSFVHLEPMSHELPCGHTQTVQAHYILNGGTLLGLKKLSFYYLIMAKGGIVRTGTHGLLVKQEDMKGHFSISIPVKSDIAPVARLLIYAVLPTGDVIGDSAKYDVENCLANKVDLSFSPSQSLPASHAHLRVTAAPQSVCALRAVDQSVLLMKPDAELSASSVYNLLPEKDLTGFPGPLNDQDDEDCINRHNVYINGITYTPVSSTNEKDMYSFLEDMGLKAFTNSKIRKPKMCPQLEQYEMHGPEGLRVGESESEGGGGGSLLGEFEVEGGFAGLPNGKLRKYFPETWIWDLVVVNSAGVAEVGVTVPDTITEWKAGAFCLSEDAGLGISSTASLRAFQPFFVELTMPYSVIRGEAFTLKATVLNYLPKCIRVSVQLEASPAFLAVPVEKEQAPHCICANGRQTVSWAVTPKSLGNVNFTVSAEALESQELCGTEVPSVPEHGRKDTVIKPLLVEPEGLEKETTFNSLLCPSGGEVSEELSLKLPPNVVEESARASVSVLGDILGSAMQNTQNLLQMPYGCGEQNMVLFAPNIYVLDYLNETQQLTPEIKSKAIGYLNTGYQRQLNYKHYDGSYSTFGERYGRNQGNTWLTAFVLKTFAQARAYIFIDEAHITQALIWLSQRQKDNGCFRSSGSLLNNAIKGGVEDEVTLSAYITIALLEIPLTVTHPVVRNALFCLESAWKTAQEGDHGSHVYTKALLAYAFALAGNQDKRKEVLKSLNEEAVKKDNSVHWERPQKPKAPVGHFYEPQAPSAEVEMTSYVLLAYLTAQPAPTSEDLTSATNIVKWITKQQNAQGGFSSTQDTVVALHALSKYGAATFTRTGKAAQVTIQSSGTFSSKFQVDNNNRLLLQQVSLPELPGEYSMKVTGEGCVYLQTSLKYNILPEKEEFPFALGVQTLPQTCDEPKAHTSFQISLSVSYTGSRSASNMAIVDVKMVSGFIPLKPTVKMLERSNHVSRTEVSSNHVLIYLDKVSNQTLSLFFTVLQDVPVRDLKPAIVKVYDYYETDEFAIAEYNAPCSKDLGNADYKDDDDKGASHHHHHH
